We go through two molecules from publication PMC6208366, “Structure and pro-toxic mechanism of the human Hsp90/PPIase/Tau complex” (Nature Communications, 2018).

The target in experiment [1] is T1, full-length human Tau (htau40, 441 residues, 2N4R) (human, UniProt P10636-8 1-441).
T1 construct: 15N-labelled for the NMR titrations; also called 2N4R Tau; source: E. coli BL21 (DE3), vector pNG2, purified (boiling, SP-Sepharose)
Briefly: NMR titration; 1H-15N spectra of 15N-labeled Tau (30-50 μM) with up to 5 equivalents of unlabeled partner, 5 °C, 50 mM sodium phosphate/10 mM NaCl/1 mM DTT pH 6.8. Particulars: both partners purified.

The next experiment addresses T2, human full-length Hsp90β (human, UniProt P08238 1-724).
T2 construct: Human Hsp90β (heat-shock protein 90 beta), full length, dimer; For NMR, Ile δ1 methyl-labelled in a deuterated background or unlabelled; nothing is said for Hsp90; also called heat-shock protein 90; Hsp90 dimer; source: E. coli BL21 (DE3) or Rosetta 2 (DE3), purified (Ni-NTA, SEC)
Briefly: paramagnetic NMR (pseudo-contact shifts); 80 μM Ile-labelled Hsp90 with 40 μM CLaNP-7-tagged FKBP51 mutant (Tm3+ against Lu3+), 25 °C, 50 mM sodium phosphate/300 mM NaCl pH 7.2 in D2O. Particulars: both partners purified.

T2 sequence (P08238 whole entry): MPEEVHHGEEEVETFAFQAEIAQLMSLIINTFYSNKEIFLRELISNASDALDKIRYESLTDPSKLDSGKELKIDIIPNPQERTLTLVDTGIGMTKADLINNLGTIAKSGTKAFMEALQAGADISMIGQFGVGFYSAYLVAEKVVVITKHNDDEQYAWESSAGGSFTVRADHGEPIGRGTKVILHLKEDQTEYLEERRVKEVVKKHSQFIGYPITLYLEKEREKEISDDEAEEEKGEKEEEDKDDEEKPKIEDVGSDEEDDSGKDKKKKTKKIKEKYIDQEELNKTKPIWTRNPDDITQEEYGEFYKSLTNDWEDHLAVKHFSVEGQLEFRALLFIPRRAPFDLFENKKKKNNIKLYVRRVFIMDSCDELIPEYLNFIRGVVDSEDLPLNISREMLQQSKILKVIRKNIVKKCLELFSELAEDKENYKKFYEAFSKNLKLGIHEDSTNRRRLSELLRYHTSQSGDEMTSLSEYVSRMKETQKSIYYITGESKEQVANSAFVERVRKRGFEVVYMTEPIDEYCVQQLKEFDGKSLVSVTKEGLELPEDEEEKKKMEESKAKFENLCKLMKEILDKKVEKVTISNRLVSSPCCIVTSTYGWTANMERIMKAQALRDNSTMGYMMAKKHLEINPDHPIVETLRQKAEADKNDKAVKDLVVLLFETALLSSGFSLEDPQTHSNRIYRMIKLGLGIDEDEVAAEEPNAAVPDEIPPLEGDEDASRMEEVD
T1 sequence (P10636 other isoform, or with tags, fused parts or gaps): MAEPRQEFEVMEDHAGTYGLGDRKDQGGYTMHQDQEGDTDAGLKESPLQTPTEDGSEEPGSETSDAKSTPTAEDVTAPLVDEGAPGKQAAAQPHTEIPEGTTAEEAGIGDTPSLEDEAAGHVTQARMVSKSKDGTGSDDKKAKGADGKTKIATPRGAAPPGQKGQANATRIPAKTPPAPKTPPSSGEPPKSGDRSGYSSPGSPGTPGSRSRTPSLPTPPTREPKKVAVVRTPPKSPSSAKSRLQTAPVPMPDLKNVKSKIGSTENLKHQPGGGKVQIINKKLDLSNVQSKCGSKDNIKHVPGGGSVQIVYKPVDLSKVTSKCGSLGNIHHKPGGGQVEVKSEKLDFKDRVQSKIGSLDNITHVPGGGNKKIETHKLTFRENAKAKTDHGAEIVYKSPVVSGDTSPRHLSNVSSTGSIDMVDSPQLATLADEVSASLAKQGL

B1: full-length human FKBP51 (natural protein, UniProt Q13451 1-457, looked up)
chain: MTTDEGAKNNEESPTATVAEQGEDITSKKDRGVLKIVKRVGNGEETPMIGDKVYVHYKGKLSNGKKFDSSHDRNEPFVFSLGKGQVIKAWDIGVATMKKGEICHLLCKPEYAYGSAGSLPKIPSNATLFFEIELLDFKGEDLFEDGGIIRRTKRKGEGYSNPNEGATVEIHLEGRCGGRMFDCRDVAFTVGEGEDHDIPIGIDKALEKMQREEQCILYLGPRYGFGEAGKPKFGIEPNAELIYEVTLKSFEKAKESWEMDTKEKLEQAAIVKEKGTVYFKGGKYMQAVIQYGKIVSWLEMEYGLSEKESKASESFLLAAFLNLAMCYLKLREYTKAVECCDKALGLDSANEKGLYRRGEAQLLMNEFESAKGDFEKVLEVNPQNKAARLQISMCQKKAKEHNERDRRIYANMFKKFAEQDAKEEANKAMGKKTSEGVTNEKGTDSQAMEEEKPEGHV
notes: For NMR, Leu/Val or Ala/Met methyl-labelled or unlabelled; also called PPIase; source: E. coli BL21 (DE3) or Rosetta 2 (DE3), purified (Ni-NTA, HRV3C cut, SEC)
In the case of B1, the binding result in experiment [1] is listed as “binds”.

B2: CLaNP-7-tagged FKBP51 C176S/C183S/C215S/C339S/C394S/E110C (natural protein, human, UniProt Q13451 1-457, looked up)
chain: MTTDEGAKNNEESPTATVAEQGEDITSKKDRGVLKIVKRVGNGEETPMIGDKVYVHYKGKLSNGKKFDSSHDRNEPFVFSLGKGQVIKAWDIGVATMKKGEICHLLCKPCYAYGSAGSLPKIPSNATLFFEIELLDFKGEDLFEDGGIIRRTKRKGEGYSNPNEGATVEIHLEGRSGGRMFDSRDVAFTVGEGEDHDIPIGIDKALEKMQREEQSILYLGPRYGFGEAGKPKFGIEPNAELIYEVTLKSFEKAKESWEMDTKEKLEQAAIVKEKGTVYFKGGKYMQAVIQYGKIVSWLEMEYGLSEKESKASESFLLAAFLNLAMCYLKLREYTKAVESCDKALGLDSANEKGLYRRGEAQLLMNEFESAKGDFEKVLEVNPQNKAARLQISMSQKKAKEHNERDRRIYANMFKKFAEQDAKEEANKAMGKKTSEGVTNEKGTDSQAMEEEKPEGHV
modifications: CLaNP-7 lanthanide tag (Tm3+ or Lu3+) attached to C107 and C110 (E110C) in FK1
notes: Human FKBP51, full length, with E110C and all cysteines other than C107 removed; also called FKBP51_(C176S/C183S/C215S/C339S/C394S/E110C)-CLaNP-7; source: E. coli, purified as the wild-type protein, tagged with CLaNP-7
With B2, the binding result with human full-length Hsp90β is recorded as “binds”.
